Results on one substance are retold here after paper PMC7465668.

The assay deals with S-enantioselective imine reductase from Mycobacterium smegmatis (S-IRED-Ms) (Mycobacterium smegmatis). Briefly: crystal structure; holo-S-IRED-Ms co-crystallised with 5 mM NADPH; 10 mg/mL protein, 20% (w/v) PEG 3350, 0.2 M sodium formate, sitting drop, 4 °C; 1.55 Å, five monomers in the asymmetric unit.

Consider “S-enantioselective imine reductase from Mycobacterium smegmatis (S-IRED-Ms) (enzyme)”, for which the stoichiometry N worked out at 2.
